Data from publication PMC7968656.

Target: protrusion protein of OmRV-LZ (N-terminal part of P3, cleaved from the ORF1-encoded precursor) (Omono River virus strain LZ (OmRV-LZ))
Experiment: cryo-EM structure; sub-particle refinement of the protrusion extracted from the virus particles, capsid signal subtracted; first C1, then C5 symmetry; 4.10 Å

Substance: protrusion protein of OmRV-LZ (N-terminal part of P3, cleaved from the ORF1-encoded precursor) (natural protein)
- stoichiometry N: 5
